Measurements: the supplement of paper PMC12764529
± gives the half width of the 95% confidence interval.

What was measured:
[1] = folding stability dG unfold from trypsin proteolysis; higher = more stable
Outline: (§1)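 Unfolding free energy was derived, per protease or combined, by relating Bayesian-fitted K50 values from sequencing counts to a sequence-predicted unfolded-state K50 and a shared folded-state K50. The underlying digests exposed cysteine-free mini-proteins under 80 residues, in a PA-tagged cDNA display construct, to trypsin and chymotrypsin at 11 threefold-diluted concentrations and to a no-protease condition. A filter kept only designs with AlphaFold2 dimer inter-PAE above 15.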

[2] = folding stability dG unfold from chymotrypsin proteolysis; higher = more stable
Outline: as §1

[3] = folding stability dG unfold (combined trypsin and chymotrypsin); higher = more stable
Outline: as §1

Sequence	folding stability dG unfold [1] [kcal/mol]	folding stability dG unfold [2] [kcal/mol]	folding stability dG unfold [3] [kcal/mol]
SAGGSAGGSAAPEVTIKVTITYDPETNVLTIEAEATLPDGRKVRITARINKDGSIEIVSVEEVSAGGSAGGS [r12_1029_TrROS_Hall]	4.63 ± 0.64	4.61 ± 0.91	> 6
SAGGSAMPEVKVEVEIIERDPENEDYVLVRIKVEVRFKTEDGEEVEVREERELLVFPSEEELKKALSAGGSA [r15_1019_TrROS_Hall]	2.02 ± 0.064	1.82 ± 0.048	1.89 ± 0.33
SAGGSAGGSAGTIRIKTKDGKTIEIELEGLSDEELENPEVLAEIKKALEDAGFEIVEVEPSAGGSAGGSAGG [r11_467_TrROS_Hall]	2.19 ± 0.061	2.04 ± 0.054	2.09 ± 0.078
SKAEILEAPAVFNPESESATLYYLVKVTFPDPSVKLIPGVFPADYTPEQAAEEILARFKSLGLESATITPSA [r9_1203_TrMRF]	1.5 ± 0.15	1.46 ± 0.12	1.57 ± 0.19
SAGGSAGGGLIEIIPNTLKAKIINPKTGKVEEIEFSNIDELIEEIKKKYPNVDFKILPNGIILGSAGGSAGG [r6_286_TrMRF]	3.14 ± 0.16	2.82 ± 0.07	3.05 ± 0.19
SAGGSAGGSAGTSIKEAKIKLPSNGKTYKAIVTTHPNGKKYVYIPETGKVYELNNLIIEPSAGGSAGGSAGG [r11_301_TrMRF]	1.4 ± 0.047	2.32 ± 0.055	2.02 ± 0.059
SAGGSAGGSAGGLPPGDKLKPVASWPIWAMFPVTYKGPDGELPFNIMIPIRIEIWKPDDSAGGSAGGSAGGS [r10_758_TrROS]	2.23 ± 0.087	2.674 ± 0.022	2.49 ± 0.1
SAGGSAEEEEARRLAEELARRLEEEGYEIERVEVRVERLPDGTVRITVRVYRKDGKPVLELEITLPSAGGSA [r15_232_TrROS_Hall]	4.54 ± 0.19	4.99 ± 0.18	4.97 ± 0.11
SAGGPLRIHISIENPNGKTLTYQIPLPPGDPEEAVKEIADEMKERGGTITSIEIENGVITITVRIPPSAGGS [r16_662_TrROS]	2.32 ± 0.059	2.97 ± 0.046	2.8 ± 0.075
SAGGSAGGSAGGDGIVVPVDEAVGLIKELGLKVVGVFEHPGGPPAVLFELPDGRLLLAESAGGSAGGSAGGS [r10_210_TrMRF]	0.381 ± 0.045	0.792 ± 0.042	0.603 ± 0.047
SAGGMRIEVEIEEVRELPDGRLVFRVRARIELKVRVLERDENGRWRELPEEEVTVELEVEVEVFLPPSAGGS [r16_693_TrROS_Hall]	3.97 ± 0.19	5.08 ± 0.21	4.75 ± 0.3
SAGGSAGGSAGMTVEDLEFDIPFESEEEAIEYLKKKLPKDYTIKPIGFEPENGKLKVKVTKKSAGGSAGGSA [r18_429_JUSTAS]	0.485 ± 0.19	0.789 ± 0.15	0.8 ± 0.3
SAGGSAGGSAGGKFKIVKVEKVKNENGEEYVRVYLYNKDGKPVKEFTMSKEELEKLLKELSAGGSAGGSAGG [r7_891_TrROS_Hall]	2.72 ± 0.11	2.96 ± 0.051	2.88 ± 0.15
SAGGSAGGSMKTEVTVDEEGKYTVTVTPPDGSTVNLVVPPGDPAAAVAAAKAAGLEVEDIKAASAGGSAGGS [r12_891_JUSTAS]	0.0357 ± 0.061	-0.241 ± 0.15	-0.21 ± 0.27
SAGGMKKKLLILVDSNNPNIPLEKIKEFFKKKGFDEVETLSLENIPPEKAIELAKKEKKPLLIIPTSSAGGS [r16_94_TrMRF]	1.376 ± 0.012	2.21 ± 0.04	1.97 ± 0.063
SAGGSAGGSALVVRLENGKEILIEGMSEEEIKELLDKLLPPEEKKNLKIVKVEVFEVEKPESAGGSAGGSAG [r3_340_TrROS_Hall]	1.62 ± 0.1	1.14 ± 0.096	1.29 ± 0.18
SAGGSAGGPKTKTVDFIVPALDENGNPLPDNAKFTFKLPDKTINIDFKRDKDSDYVLVKATITNSAGGSAGG [r6_657_TrMRF]	0.197 ± 0.11	0.901 ± 0.14	0.625 ± 0.098
SAGGSAGGSAGGSMIVLNVPREVAEKIKEELIKKGIDPEKVKVIYIEVPLPEEPPESILSAGGSAGGSAGGS [r10_602_JUSTAS]	0.798 ± 0.067	0.351 ± 0.099	0.548 ± 0.16
SAPPNVWVSRTDPATGAVHAEDIPFPDGATAETVPDPATGTVAQSSDGPPAVLEEVRAALPPDASIEPASAG [r14_252_JUSTAS]	-0.555 ± 0.15	-0.245 ± 0.42	-0.175 ± 0.2
SAGGSAGGSAGKHTFNIKDIEIKEVVPSNNYYVVRIEMTFPDGKEHKFTFYFPPGDPITLSAGGSAGGSAGG [r11_211_TrROS]	1.97 ± 0.055	2.87 ± 0.085	2.53 ± 0.14
SAGGKSISFGKKAGKEKMKEAIKKGLKNIKIVVFKDGKPEVIEVKADDLDKVFDNIPEDSIVVFEPESAGGS [r16_636_TrMRF]	1.28 ± 0.06	2.19 ± 0.038	2.17 ± 0.17

Sequence	folding stability dG unfold [1] [kcal/mol]	folding stability dG unfold [2] [kcal/mol]	folding stability dG unfold [3] [kcal/mol]
SAGGSAGGSAMIEDPATGRVYELDPSVPTVTVYEKTEGEGGEVVEKGVVEADPANPEKALLESAGGSAGGSA [r18_448_JUSTAS]	0.45 ± 0.048	0.826 ± 0.073	0.716 ± 0.069
SAGGSAGGMPVTPEEARAIAEELRAELGATTVEVEVSPDGRTVTITITSSEDGKVLTRTIEFEASAGGSAGG [r6_550_JUSTAS]	2.25 ± 0.091	2.33 ± 0.036	2.29 ± 0.059
SAGGSAGGSAGGVPPESVLLSEEKVGGKTVEIVRDPATGKLYRVTKVPGSDSIEVEELGLSAGGSAGGSAGG [r7_179_JUSTAS]	2.2 ± 0.093	2.549 ± 0.013	2.43 ± 0.092
YKAKITSVSFIPGEGYIVFNVEVIGPDGIPATFPIVIKIEIEPEEPDPAPPVIKDPNGKVYNPIIPKWFDAS [r1_270_TrMRF]	1.5 ± 0.043	2.38 ± 0.054	2.13 ± 0.09
SAGGSAMLIRFVRDDKTVELRPFSSIEEARAFLEKGPVEEIEPREAPGGERVTFRAKLPDGEVLVESAGGSA [r15_632_JUSTAS]	-0.466 ± 0.23	-0.743 ± 0.33	-0.542 ± 0.15
SAGGKTKTYTFVLEDPVKKGIPVLAKVTVTYEPDENGNEVAPANVVVYYPDGKPEVLKVDVSNITGTGSAGG [r13_787_TrMRF]	0.123 ± 0.13	1.11 ± 0.053	0.737 ± 0.06
SGIGEMSPEEIAKRLAEELGLSGIEVSVSTEGNTLTIPVKAKDPVKNEEITITITITPENGGKIKITTAGSA [r9_1042_JUSTAS]	0.397 ± 0.12	0.299 ± 0.057	0.444 ± 0.21
SAGGSAGGSAGGPPILLPKFDGSVKEVLTLPTEDRLLLVAYNPETGKLFVFEIKDPDEFSAGGSAGGSAGGS [r10_772_TrMRF]	0.694 ± 0.044	1.65 ± 0.063	1.34 ± 0.14
SAGGSAGGSSKAEELAKKLGVKVKIIDKFTLPGNKKVILAKVKFPGKGYALVLYDGKTPVLLPSAGGSAGGS [r12_279_TrMRF]	1.97 ± 0.07	1.86 ± 0.099	1.96 ± 0.087
SAGGSAGSLSPIGEHPYTLPDGSRITVPIYRDPATGEIVVEVETETEEEDISEKAEEYAEKVREALSAGGSA [r15_529_JUSTAS]	-0.0147 ± 0.048	-0.571 ± 0.45	-0.25 ± 0.14
SAGGSAGGSAGGMKTIVVPKDELEKLKEELEKKGKKVETSEDGTWTVDGKPVKVVVEPGSAGGSAGGSAGGS [r10_930_JUSTAS]	0.352 ± 0.062	0.731 ± 0.032	0.594 ± 0.1
SAGSPIEELAKKIAEPKYKEEKKPNLTIKVEIEVTVTTSVPVKLPNGEPAYKTTEVKIKVKLTINIPEGSAG [r5_297_JUSTAS]	3 ± 0.16	3.63 ± 0.48	3.39 ± 0.46
SAGGSAGGSSMTLTSEKTEKFTEGSKEFLKKTETWKLPGNSTLTKETIIDPSSDKYKEKISLLSAGGSAGGS [r12_1035_JUSTAS]	-0.727 ± 0.24	-0.0253 ± 0.24	-0.159 ± 0.18
SMTLPLLFVFPVNSPEELEKARKLAEEEVKELAEELGVKVKIEKVEYFVNPEGDYVLIRAYVTVTSPEEESA [r9_105_TrMRF]	3.18 ± 0.054	4.07 ± 0.1	3.76 ± 0.086
SAGGSFTSEPNPNAPPDQPETITDPSKGVTTEVYFDTEKGTVSTTTTTTGDGTPTTSTSTTAIDPAAASAGG [r13_851_JUSTAS]	1.33 ± 0.15	1.37 ± 0.085	1.34 ± 0.18
SAGGKKYKVKVVSVEYDKETKEVTVKVEFEDNKVVVEKKVKVKLPPVKIEFSEEDLKEGKVEIKIEFSAGGS [r16_809_TrROS_Hall]	1.46 ± 0.11	2.63 ± 0.049	2.27 ± 0.1
SAGGSAGGSAGGVKPGQKVKVEIDGKTYEATVDEKNGTIYVTLPNGKKYKAKIVKVEKVSAGGSAGGSAGGS [r10_1185_TrROS_Hall]	1.79 ± 0.18	2.64 ± 0.05	2.38 ± 0.12
SAMTIVIRLPPPPPPLTAEELAELLGAEVTEIRVERNEDGELVVTITVREDMSEEQRRRLLELLRERAESAG [r14_421_TrROS_Hall]	4.32 ± 0.07	3.83 ± 0.048	4.02 ± 0.075
SAGMTEEELKKLKEKFPNLKIEPVKTITIKVEPNASVEEIAKKLKELLNIDKVEIEVNEETGEITIRIYSAG [r5_694_TrROS_Hall]	2.98 ± 0.15	4.07 ± 0.16	3.69 ± 0.23
SAGGSAGGSAKKKVKIKLEFDKETNTLRIEVEDEDTGEKTEIEITIKLEPPPPPPLPEELKKSAGGSAGGSA [r18_361_TrROS_Hall]	1.72 ± 0.18	1.42 ± 0.22	1.73 ± 0.61
